Assay results: PMC9152305

Tests used:
[1] = molecular target: SARS-CoV-2 Omicron BA.2 spike extracellular domain trimer (SARS-CoV-2 Omicron BA.2) (UniProt P0DTC2); assay: cryo-EM structure
[2] = molecular target: SARS-CoV-2 Omicron BA.2 spike extracellular domain trimer (SARS-CoV-2 Omicron BA.2) (UniProt P0DTC2); assay: BLI

Row | Substance | stoichiometry N (Fab per spike trimer) [1] | Kd [2] [nM]
1 | JMB2002 Fab | 3 | 2.6
2 | JMB2002 IgG (antibody) |  | 0.3
